Paper PMC5758883, “Analysis of the natively unstructured RNA/protein-recognition core in the Escherichia coli RNA degradosome and its interactions with regulatory RNA/Hfq complexes” (Nucleic Acids Research, 2017)

B1: DEAD-box helicase RhlB (enzyme, Escherichia coli, UniProt P0A8J8 1-421, looked up)
chain: MSKTHLTEQKFSDFALHPKVVEALEKKGFHNCTPIQALALPLTLAGRDVAGQAQTGTGKTMAFLTSTFHYLLSHPAIADRKVNQPRALIMAPTRELAVQIHADAEPLAEATGLKLGLAYGGDGYDKQLKVLESGVDILIGTTGRLIDYAKQNHINLGAIQVVVLDEADRMYDLGFIKDIRWLFRRMPPANQRLNMLFSATLSYRVRELAFEQMNNAEYIEVEPEQKTGHRIKEELFYPSNEEKMRLLQTLIEEEWPDRAIIFANTKHRCEEIWGHLAADGHRVGLLTGDVAQKKRLRILDEFTRGDLDILVATDVAARGLHIPAVTHVFNYDLPDDCEDYVHRIGRTGRAGASGHSISLACEEYALNLPAIETYIGHSIPVSKYNPDALMTDLPKPLRLTRPRTGNGPRRTGAPRNRRRSG
notes: E. coli DEAD-box helicase RhlB; HDX-MS covers both RecA-like domains and the tail 400–421, so probably the whole protein; also called RhIB
B2: enolase (enzyme, Escherichia coli)
chain: MSKIVKIIGREIIDSRGNPTVEAEVHLEGGFVGMAAAPSGASTGSREALELRDGDKSRFLGKGVTKAVAAVNGPIAQALIGKDAKDQAGIDKIMIDLDGTENKSKFGANAILAVSLANAKAAAAAKGMPLYEHIAELNGTPGKYSMPVPMMNIINGGEHADNNVDIQEFMIQPVGAKTVKEAIRMGSEVFHHLAKVLKAKGMNTAVGDEGGYAPNLGSNAEALAVIAEAVKAAGYELGKDITLAMDCAASEFYKDGKYVLAGEGNKAFTSEEFTHFLEELTKQYPIVSIEDGLDESDWDGFAYQTKVLGDKIQLVGDDLFVTNTKILKEGIEKGIANSILIKFNQIGSLTETLAAIKMAKDAGYTAVISHRSGETEDATIADLAVGTAAGQIKTGSMSRSDRVAKYNQLIRIEEALGEKAPYNGRKEIKGQA
notes: E. coli enolase; No tag is named for enolase in either construct; also called glycolytic enzyme enolase; enolase dimer; source: E. coli Rosetta (DE3), pETDuet, co-expressed and co-purified with His6-AR2–EBS

Assays:
[1] = target: T1, RNase E 603–850 with a C-terminal hexahistidine tag (Escherichia coli, UniProt P21513 603-850); assay: SEC-MALS; co-expressed, co-purified ternary and binary complexes loaded at 5.6 and 4.0 mg/ml on Superdex 200 10/300; 50 mM Tris–HCl pH 7.5, 100 mM NaCl, 50 mM KCl, 5 mM MgCl2, 2 mM DTT; conditions: both partners purified
T1 construct: also called Rne; source: E. coli BL21 (DE3), co-expressed with RhlB (pRSFDuet-1) with or without enolase (pET11-a); alone: RhlB and enolase removed on the column with 8 M urea; not shown: His6, C-terminal, kept
T1 sequence (looked up): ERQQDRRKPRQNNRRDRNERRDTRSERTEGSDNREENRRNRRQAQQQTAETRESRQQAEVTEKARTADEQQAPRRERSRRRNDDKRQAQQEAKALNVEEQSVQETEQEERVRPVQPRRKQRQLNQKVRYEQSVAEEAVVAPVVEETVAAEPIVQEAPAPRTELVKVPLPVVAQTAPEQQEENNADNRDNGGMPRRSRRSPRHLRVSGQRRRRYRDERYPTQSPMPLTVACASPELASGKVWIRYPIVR

[2] = target: the molecule itself; assay: native MS; native ESI and ion-mobility mass spectrometry of the co-purified ternary and binary complexes

| Binder | stoichiometry N [1] | stoichiometry N [2] |
| --- | --- | --- |
| B1 | 1 |  |
| B2 | 2 | 2 |
